Measured values: the nanobody polyreactivity screen of Harvey et al. (2022)

Assay: yeast display, Sf9 membrane polyspecificity reagent, FACS + sequencing; frameworks hold sequencing errors
Procedure, shortened: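 Nanobodies from a synthetic yeast display library (Saccharomyces cerevisiae BJ5465), induced 36–48 hours with galactose, were stained 1 hour at 4 °C with 10% biotinylated, detergent-solubilized Sf9 membrane reagent, enriched on streptavidin microbeads, then FACS-sorted. Anti-HA (expression) and streptavidin (reagent binding) fluorescence set low and high (top ~1%) gates. Polyreactivity labels come from the gate of origin. Genes were colony-PCR amplified, MiSeq 2 × 250 sequenced and filtered by CDR length.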

Sequence | polyreactivity (PSR sort gate)
QVQLVESGGGLVQAGGSLRLSCAASGIIFYRYAMGWYRQAPGKERELVAAISGSGGRTYYADSVKGRFTISRDNAKNTVYLQMNSLKPEDTAVYYCARVYDIYHYFYAYGGDYWGQGTQVTVSS | high polyreactivity
QDQLVESGGGLVQAGGSLRLSCSASGRIFYYYTMGWYRQEPGKERELVAAISSGGSTNYADSVKGRFTISRDNAKNTVYLQMNSLKPEDTAVYYCNVELTTVGHWYYYRPGYDYWVQGTQVTVSS | low polyreactivity
QVQLVESGGGLVHAGGSLRLSCAASGRIFTYYGMGWYRQAPGKERELVAAITWNGGSTYYADSVKGRFTISRDNAKNTVYLQMNSLKPEDTAVYYCNAVVYARSGGAQYGYWGQGTQVTVSS | low polyreactivity
QVQLVESGGGLVQAGGSLRLSCAASGSTFSYNDMGWYRQAPGKERELVAAISSGGSTKYADSVKGRFTISRDNAKNTVYLQMNSLKPEDTAVYYCNVDVKGRPTFWSPFGRFDYWGQGTQVTVSS | high polyreactivity
QVQLVESGGGLDQAGGSLRLSCAASGSIFLRYAMGWYRQAPGKERELVAAITTGGGSTYYADSVKGRFTISRDNAKNTVYLQMNSLKPEDTAVYYCAKRAQYHWRGRDDYSYYYWGQGTQVTVSS | low polyreactivity
QVQLVESGGGLVQAGGSLRLSCAASGSTFAYYSMGWYRQAPGKERELVAAISRTGGSTYYADSVKGRFTISRDNAKNTVYLQMNSLKPEDTAVYYCNARAPVGTFDYDYWGQGTQVTVSS | low polyreactivity
QVHLVESGGGLVQAGGSLRLSCAASGRNFSSYAMGWYRQAPGKEWELVAAIRRGGGSTSYADSVKGRFTISRDNAKKTVYLQMNSLKPEDTAVYYCAADSPRGQVHYIGGYWGHGTQVTVSS | low polyreactivity
QVQRVESGGGLVQAGGSLRLSCAATGFTSGDYAMGWYRQAPGKERELVAAIDSDGSTNYADSVKGRFTISRDNAKNTVYLQMNSLKPEDTADYYCNAKRYGFFYWQGDYWGQGTQVTVSS | low polyreactivity
QVQLVESGGGLVQAGGILRLSCAASGRTFRIYAMGRYRPAPAKVREFVAGITRSDGSTYYADSVKGRFTISRDNAKNTVSFQMNSLKPVDTEVYYCYVEPYSHYRRTEDYWGQGTEVTVSS | high polyreactivity
QVQLVESGGGLVQAGGSLRLSCAASGRIFTHNAMGWYRQAPGKERELVAAISYSGVSTYYADSVKGRFTISRDNAKNTVYLQMNSLKPEDTAVYYCNALIQSWRARIRRYYWGQGTQVTVSS | low polyreactivity
QVQLVESGGGLVQAGASLRLSCAASGRTFNVYAMGWYRQAPGKERELVASISSGTSTNYADSVKGRFTISRDNAKNTVYLQMNSLKPEDTAVYYCNADFVWNGYSGRIRDYYWGQGTQVTVSS | low polyreactivity
QVQLVESGGGLVQAGGSLRLSFAASGGIFWHYTRGWYRQAPGKERELVAAITRRGGSTYYADSVKGRFTISRDNAKNTVYLQMNSLKPEDTAVYYCAADFLPQSYNWYDYWGQGTQVTVSS | low polyreactivity
QVQLVESGGGLVQAGGSLRLSCAASGITFFLYAMGWYRQAPGKERELVAVISASGGSTYYADSVKGRFTISRDNAKNTVYLQMNSLKPEDTAVYYCAAGYRFYGFYAHDYWGQGTQVTVSS | high polyreactivity
QVQLVESGGGLVQAGGSLRLSCAASGITISVNDMGWYRQAPGKERELVAAISSGDSTNYADSVKGRFTISRDNAKNTVYLQMNSLKPEDTAVSYCAALEGSLTGWQTYDYWGQGTQVTVSS | low polyreactivity
QVQLEESGGGLVQAGGSLRLSCAAYGSIFYKNAMGWYRQAPGKERELVAAITYSGGSTYYADSVKGRFTISRDNAKKTVYLQMNSLKPEDTAVYYCAADIGVYGERREEEYDYWGQGTQVTVSS | low polyreactivity
QVQLVESGGGLVQAGGSLRLSCAASGFIFPLYTMGWYRQAPGKEREVVAAISWIGGRTYYADSVKGRFTISRDFAKNTVYLQMISLKPEDTAVYFCGKDPSGGGYGYDYWGQGTQVTVTS | low polyreactivity

Sequence | polyreactivity (PSR sort gate)
QVQLVESGGGLVQAGGSLRLSCAAYGGTFNGNTMGWYRQAPGKERELVAVIDWSGGSTYYADSVKGRFTISRDNAKNTVYLQMNSLKPEDTAVYYCNADSDAQFREPKGLYYWGQGTQVTVSS | low polyreactivity
QVQLVESGGGLVHAGGSLRLICAASGSIFQSYDMGWYRQAPGKERELVAAISWSGSTTYYADSVKGRFTISRDNAKNTVYLQMNSLKPEDTAVYYCAVDSNPPDWWAVIYGYWGQGTQVTVSS | low polyreactivity
QVQLVESGGGLVQAGGSLRLSCAASGFIFVYGNVMGWYRQAPGKERELVASITSDGGSTNYADSVKGRFTISRDNAKNTVYLQMNSLKPEDTAVYYCNADVPRGFGGEYDYWGQGTQVTVSS | low polyreactivity
QVQLVESGGGLVQAGGSLRLSCAASGSIFSLNAMGWYRPAPGKERELVAVINRSGTRTYYADSVKGRFTISRDNAKNTVYLQMNSLKPEDTAVYYCNAQPSSGSDAQNEYWGQGTQVTVSS | high polyreactivity
QVQLVESGGGLVQAGGSLRLSCAASGSTFWWYAMGWYRPAPGKERELVARISNGGGTNYADSGKGRFTISRDNEKNSVFLQMNSLIPEDTAVYYCAATVGVAYYENDYWGQGTQVTVSS | low polyreactivity
QVHLVESGGGLVQAGGSLRLSCPASGRIFAIYAAMGWTRQAPGKERELVAAISSGDNTNYADSVKGRFTISRDNAKNTVYLQLNSLKPDDTAVYYCNTNYGPTHRARYYYWGQGTQVTVSS | low polyreactivity
QVQLVDSGGGLVQAGGSLLLSCAASGSTINHKDMGLYRQAPGKERELVAAISWSGGSTTYADSVKGRFTISRDNAKNTVYLQMNSLKPEDTAVYYCAADWYYWGFIFDYWGQGTQVTVSS | high polyreactivity
QVQLVESGGGLVQGGGSLRLSCAASGRIFTFYAMGWSRPAPGKARELVASITGGGNTYYADSVKGRFTISRDNAKNTVNLQMNSLKPEDTAVYYCAADDGYRELDYWGQGTQVTVSS | low polyreactivity
QVQLVESGGGLVQAGGSLRLSCAASGRNFGPYAMGWYRQAPGKERELVAVISTRGGITNYADSVKGRFTISRDTAKNTVYVQLNSLKPEDTAVYYCAARFSYPYRIAFNYWGQGTQVTVSS | low polyreactivity
QVQLVESGGGLVQAGGSLRLSCAASGLTFRPYTMGWYRQAPGKERELVAAISARGGRTYYADSVKGRFTISRDNAKNTVYLQMNSLKPEDTAVYYCATLETTGVNYWGQGTQVTVSS | high polyreactivity
KVQLVEAGGGLVQAGGSLRLSCAASGFILIYYAMGWYRQAPGKERELFAAITWSGGSTYYADSVKGRFTISRDNEKNTVYLKMNTLKQEETAVDYCAAYVGGGDSNADHDYWGQGTQVTVSA | low polyreactivity
QVQIVESGGGLVQAGGSLRLSCAASGSTFLTNTMGWYRQAPGKERELVAAITLRGGRTYYADSVKGRFTISRDNAKNTVYLQMNSLRPEDTAVYYCNARNYYYPSDRDYWGQGTQVTVSS | low polyreactivity
QVQLVESGGGLVQAGGSLRLSCAASGSTFYANAMGWYRQAPGKERELVAAITRSGAGTYYADSVKGRFTFSRDNAKNTVYLQMNSLKPEDTAVYYCATRYGQWGQGTQVTVSS | high polyreactivity
QVQHVESGGALVQAGGSLRLSCAASGITFDYYVMGWYRTAPGKERELVAGISSGGSTYYADSVKGRFTISRDNAKNTVYLQMNSLKPEDTAVYYCNARRRRLVSVGYYYNYDYWGQGTQVTVSS | high polyreactivity
QVQLVESGGGLVQAGGSIRLSCAPSGRTFRYYAMGWYRQAPGKERELVAAISRSGGSTYYADSVKGRFTISRDNAKNTVYLQMNSLKPEVTAVYYCADRYYVPWFGPSKYTPYDYWGQGIQVTVSS | high polyreactivity
